This series deals with T1, IscR-His (Caulobacter crescentus NA1000) (UniProt A0A0H3C7T4).
T1 sequence: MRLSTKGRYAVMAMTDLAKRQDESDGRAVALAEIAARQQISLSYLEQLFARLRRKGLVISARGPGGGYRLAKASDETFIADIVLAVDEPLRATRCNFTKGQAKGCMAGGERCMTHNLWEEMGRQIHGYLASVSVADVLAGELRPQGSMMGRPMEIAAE
The series can be described thus: EMSA. The conditions noted are these: 10 mM HEPES, 40 mM KCl, 1 mM MgCl2, 1 mM MnCl2, 5% glycerol, 0.1 mg/ml salmon sperm DNA, 500 ng probe, pH not stated, 30 min room temperature.

As to “AAACCACTCCCGGAATCACGCGCAGATCGGAAGGGACACACAGGTTCCGCCTCCGCGCCGCGTACCACCCTGAACGACTGGAGGGGGGCGACCGGCCGCTTCTTAGCGCCGCCGTCGACCAACGTCCATGTCACGTGCGGGGTCTTGGCGTGTTGAGAGCTGTTCTCATTAAGGATCTGGCGATTTCGCGCGGTGAGCGAACGCTGTTTTC (double strand) [acn regulatory region]”, the binding entry is reported as “binds”.
